Six molecules from article PMC11629065 can be followed below.

For experiment [1], the target named is IL1RL1 with the extracellular risk allele (rs1041973 [C]) and the TIR signalling domain risk haplotype (rs10192157 [C]) (human) (UniProt Q01638).
Experiment [2] concerns the target IL1RL1 with the extracellular risk allele (rs1041973 [C]) and the protective TIR signalling domain haplotype (rs10192157 [T]) (human) (UniProt Q01638).
In experiment [3] the target is IL1RL1 with the extracellular risk allele (rs1041973 [C]) and the TIR signalling domain risk haplotype (rs10192157 [C]) (human) (UniProt Q01638). The source holds these as a separate data set.

Take “IL33 Exon 3,4 deletion variant (IL33_(Δ3,4)) (ligand)”: in experiment [1], the IL8 EC50 (IL8 ELISA of supernatant, transfected HEK293, risk:risk haplotype) stood at 1.5 nM; the IL8 in supernatant (ELISA) of HEK293 reporter cells transfected with IL1RL1, IL33 0.0001-50 ng/mL, 24 h; IL8 ELISA maximum was determined as 28.1 pg/µL; the SEAP EC50 Risk:Risk (NF-κB SEAP reporter, transfected HEK293) amounted to 0.0221 nM; the SEAP activity (NF-κB reporter) in supernatant of HEK293 reporter cells transfected with IL1RL1, IL33 0.0001-50 ng/mL, 24 h; SEAP maximum (OD) was found to be 2.47 OD. In experiment [2], this molecule gave an SEAP EC50 Risk:Prot (NF-κB SEAP reporter, transfected HEK293) of 0.0466 nM. The same molecule yielded an IL8 in supernatant (ELISA) of HEK293 reporter cells transfected with IL1RL1; maximum as told in the text (differs from the table's cell) in experiment [3] of 28.1 pg/mL.

B1: IL33_(99–270) (ligand)
chain: SGVQKYTRALHDSSITGISPITEYLASLSTYNDQSITFALEDESYEIYVEDLKKDEKKDKVLLSYYESQHPSNESGDGVDGKMLMVTLSPTKDFWLHANNKEHSVELHKCEKPLPDQAFFVLHNMHSNCVSFECKTDPGVFIGVKDNHLALIKVDSSENLCTENILFKLSET
For the molecule B1, in experiment [1], the IL8 EC50 (IL8 ELISA of supernatant, transfected HEK293, risk:risk haplotype) worked out at 29 nM; the IL8 in supernatant (ELISA) of HEK293 reporter cells transfected with IL1RL1, IL33 0.0001-50 ng/mL, 24 h; IL8 ELISA maximum was found to be 42.9 pg/µL; the SEAP EC50 Risk:Risk (NF-κB SEAP reporter, transfected HEK293) is 0.0292 nM; the SEAP activity (NF-κB reporter) in supernatant of HEK293 reporter cells transfected with IL1RL1, IL33 0.0001-50 ng/mL, 24 h; SEAP maximum (OD) amounted to 3.58 OD. This molecule displayed an SEAP EC50 Risk:Prot (NF-κB SEAP reporter, transfected HEK293) in experiment [2] of 0.0906 nM.

B2: IL33_(109–270) (ligand)
chain: HDSSITGISPITEYLASLSTYNDQSITFALEDESYEIYVEDLKKDEKKDKVLLSYYESQHPSNESGDGVDGKMLMVTLSPTKDFWLHANNKEHSVELHKCEKPLPDQAFFVLHNMHSNCVSFECKTDPGVFIGVKDNHLALIKVDSSENLCTENILFKLSET
For B2, in experiment [1], the IL8 EC50 (IL8 ELISA of supernatant, transfected HEK293, risk:risk haplotype) turned out to be 0.00117 nM; the IL8 in supernatant (ELISA) of HEK293 reporter cells transfected with IL1RL1, IL33 0.0001-50 ng/mL, 24 h; IL8 ELISA maximum was 24.6 pg/µL; the SEAP EC50 Risk:Risk (NF-κB SEAP reporter, transfected HEK293) is 0.0147 nM; the SEAP activity (NF-κB reporter) in supernatant of HEK293 reporter cells transfected with IL1RL1, IL33 0.0001-50 ng/mL, 24 h; SEAP maximum (OD) came to 3.07 OD. The SEAP EC50 Risk:Prot (NF-κB SEAP reporter, transfected HEK293) in experiment [2] was determined as 0.0712 nM.

B3: IL33_(112–270) (ABNOVA) (ligand)
chain: SITGISPITEYLASLSTYNDQSITFALEDESYEIYVEDLKKDEKKDKVLLSYYESQHPSNESGDGVDGKMLMVTLSPTKDFWLHANNKEHSVELHKCEKPLPDQAFFVLHNMHSNCVSFECKTDPGVFIGVKDNHLALIKVDSSENLCTENILFKLSET
For B3, in experiment [1], the IL8 EC50 (IL8 ELISA of supernatant, transfected HEK293, risk:risk haplotype) came to 0.0698 nM; the IL8 in supernatant (ELISA) of HEK293 reporter cells transfected with IL1RL1, IL33 0.0001-50 ng/mL, 24 h; IL8 ELISA maximum was 24.6 pg/µL; the SEAP EC50 Risk:Risk (NF-κB SEAP reporter, transfected HEK293) turned out to be 0.0462 nM; the SEAP activity (NF-κB reporter) in supernatant of HEK293 reporter cells transfected with IL1RL1, IL33 0.0001-50 ng/mL, 24 h; SEAP maximum (OD) was determined as 3.28 OD. Besides, the SEAP EC50 Risk:Prot (NF-κB SEAP reporter, transfected HEK293) in experiment [2] stood at 0.2 nM.

B4: IL33_(95–270) (ligand)
chain: AFGISGVQKYTRALHDSSITGISPITEYLASLSTYNDQSITFALEDESYEIYVEDLKKDEKKDKVLLSYYESQHPSNESGDGVDGKMLMVTLSPTKDFWLHANNKEHSVELHKCEKPLPDQAFFVLHNMHSNCVSFECKTDPGVFIGVKDNHLALIKVDSSENLCTENILFKLSET
In experiment [1], B4 displayed an IL8 EC50 (IL8 ELISA of supernatant, transfected HEK293, risk:risk haplotype) of 0.00074 nM; an IL8 in supernatant (ELISA) of HEK293 reporter cells transfected with IL1RL1, IL33 0.0001-50 ng/mL, 24 h; IL8 ELISA maximum of 49.7 pg/µL; an SEAP EC50 Risk:Risk (NF-κB SEAP reporter, transfected HEK293) of 0.00699 nM; an SEAP activity (NF-κB reporter) in supernatant of HEK293 reporter cells transfected with IL1RL1, IL33 0.0001-50 ng/mL, 24 h; SEAP maximum (OD) of 3.79 OD. The SEAP EC50 Risk:Prot (NF-κB SEAP reporter, transfected HEK293) in experiment [2] came out at 0.0427 nM.

B5: IL33_(113–270) (ligand)
chain: ITGISPITEYLASLSTYNDQSITFALEDESYEIYVEDLKKDEKKDKVLLSYYESQHPSNESGDGVDGKMLMVTLSPTKDFWLHANNKEHSVELHKCEKPLPDQAFFVLHNMHSNCVSFECKTDPGVFIGVKDNHLALIKVDSSENLCTENILFKLSET
For the molecule B5, in experiment [1], the IL8 EC50 (IL8 ELISA of supernatant, transfected HEK293, risk:risk haplotype) worked out at 1.58 nM; the IL8 in supernatant (ELISA) of HEK293 reporter cells transfected with IL1RL1, IL33 0.0001-50 ng/mL, 24 h; IL8 ELISA maximum is 37.8 pg/µL; the SEAP EC50 Risk:Risk (NF-κB SEAP reporter, transfected HEK293) is 0.0135 nM; the SEAP activity (NF-κB reporter) in supernatant of HEK293 reporter cells transfected with IL1RL1, IL33 0.0001-50 ng/mL, 24 h; SEAP maximum (OD) worked out at 2.6 OD. Moreover, the SEAP EC50 Risk:Prot (NF-κB SEAP reporter, transfected HEK293) in experiment [2] was 0.189 nM.
